Laboratory results: patent US10766960 (dated 2020)
Like-named read-outs stand apart in the source and are kept apart here.

T1: FcgRIIa R (human, UniProt P12318)
T1 chain: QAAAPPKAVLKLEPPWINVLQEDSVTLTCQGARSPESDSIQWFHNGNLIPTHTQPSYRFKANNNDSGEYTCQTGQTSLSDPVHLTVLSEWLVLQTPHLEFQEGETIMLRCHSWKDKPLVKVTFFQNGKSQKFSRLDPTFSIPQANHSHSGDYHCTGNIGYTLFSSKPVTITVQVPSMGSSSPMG

T2: FcgRIa (human, UniProt P12314)
T2 chain: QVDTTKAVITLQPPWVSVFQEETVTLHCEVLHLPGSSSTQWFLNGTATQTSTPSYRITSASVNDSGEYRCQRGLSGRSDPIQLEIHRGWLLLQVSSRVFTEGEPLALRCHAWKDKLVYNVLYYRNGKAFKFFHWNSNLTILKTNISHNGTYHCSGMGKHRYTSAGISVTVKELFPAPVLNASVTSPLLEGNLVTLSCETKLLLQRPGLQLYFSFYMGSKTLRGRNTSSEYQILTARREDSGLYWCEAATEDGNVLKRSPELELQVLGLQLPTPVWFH

T3: FcgRIIa H (human, UniProt P12318)
T3 chain: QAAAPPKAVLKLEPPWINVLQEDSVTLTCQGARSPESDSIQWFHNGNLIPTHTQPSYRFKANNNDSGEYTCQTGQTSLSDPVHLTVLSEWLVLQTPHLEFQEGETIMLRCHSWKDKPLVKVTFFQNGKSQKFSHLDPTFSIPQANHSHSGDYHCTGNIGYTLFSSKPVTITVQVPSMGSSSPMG

T4: FcgRIIb (human, UniProt P31994)
T4 chain: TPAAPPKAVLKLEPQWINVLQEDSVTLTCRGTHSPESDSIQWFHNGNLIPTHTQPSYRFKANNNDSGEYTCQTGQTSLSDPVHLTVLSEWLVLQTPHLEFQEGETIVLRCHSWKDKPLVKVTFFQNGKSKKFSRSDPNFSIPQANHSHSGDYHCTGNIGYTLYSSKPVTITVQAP


Key:
Assay in all cases: SPR
FcgRIIa R [1] = target: T1, FcgRIIa R
FcgRIa [2] = target: T2, FcgRIa
FcgRIIIa F [3] = target: T5, FcgRIIIa F (human, UniProt P08637)
FcgRIIa H [4] = target: T3, FcgRIIa H
FcgRIIb [5] = target: T4, FcgRIIb
FcgRIIIa V [6] = target: T6, FcgRIIIa V (human, UniProt P08637)
FcgRIIIa V [7] = target: T6, FcgRIIIa V; remark: listed apart in the source
FcgRIIa H [8] = target: T3, FcgRIIa H
FcgRIIb [9] = target: T4, FcgRIIb
FcgRIIa R [10] = target: T1, FcgRIIa R
FcgRIIIa F [11] = target: T5, FcgRIIIa F; remark: listed apart in the source
FcgRIa [12] = target: T2, FcgRIa

T5 sequence (P08637 17-208): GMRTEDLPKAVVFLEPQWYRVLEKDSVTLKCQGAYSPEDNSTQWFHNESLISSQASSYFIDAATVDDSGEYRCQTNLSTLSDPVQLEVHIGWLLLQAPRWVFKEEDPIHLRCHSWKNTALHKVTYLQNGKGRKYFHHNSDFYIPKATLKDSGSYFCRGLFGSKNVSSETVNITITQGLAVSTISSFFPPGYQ
T6 sequence (P08637 17-208 F176V): as the sequence (P08637 17-208) above, with F160V counted along it

Kd (FcgRIIa R [1]) [nM]	Kd (FcgRIa [2]) [nM]	Kd (FcgRIIIa F [3]) [nM]	Kd (FcgRIIa H [4]) [nM]	Kd (FcgRIIb [5]) [nM]	Kd (FcgRIIIa V [6]) [nM]	Kd (FcgRIIIa V [7]) [nM]	Kd (FcgRIIa H [8]) [nM]	Kd (FcgRIIb [9]) [nM]	Kd (FcgRIIa R [10]) [nM]	Kd (FcgRIIIa F [11]) [nM]	Kd (FcgRIa [12]) [nM]	Binder
4.8	0.019	3.7	11	110	1.3	–	–	–	–	–	–	GpH7-Kn045/GpH7-Hl048/GpL16-k0 (antibody) chain 1: QVQLVQSGAEVKKPGASVTVSCKASGYTFTDYEMHWIRQPPGEGLEWIGAIDPKTGDTAYSESFQDRVTLTADKSTSTAYMELSSLTSEDTAVYYCTRFYSYTYWGQGTLVTVSSASTKGPSVFPLAPSSKSTSGGTAALGCLVKDYFPEPVTVSWNSGALTSGVHTFPAVLQSSGLYSLSSVVTVPSSSLGTQTYICNVNHKPSNTKVDKKVEPKSCDKTHTCPPCPAPEYYAGPSVFLFPPKPKDTLMISRTPEVTCVVVDVSDEDPEVKFNWYVDGVEVHNAKTKPREEQYNATYRVVSVLTVLHQDWLNGKEYKCKVSNKALPAPIEKTISKAKGQPREPQVCTLPPSRDELTKNQVSLWCLVKGFYPSDIAVEWESNGQPENNYKTTPPVLDSDGSFFLYSKLTVDKSRWQQGNVFSCSVMHEALHNHYTQKSLSLSP chain 2: QVQLVQSGAEVKKPGASVTVSCKASGYTFTDYEMHWIRQPPGEGLEWIGAIDPKTGDTAYSESFQDRVTLTADKSTSTAYMELSSLTSEDTAVYYCTRFYSYTYWGQGTLVTVSSASTKGPSVFPLAPSSKSTSGGTAALGCLVKDYFPEPVTVSWNSGALTSGVHTFPAVLQSSGLYSLSSVVTVPSSSLGTQTYICNVNHKPSNTKVDKKVEPKSCDKTHTCPPCPAPELLAGPDVFLFPPKPKDTLMISRTPEVTCVVVDVSHEDPEVKFNWYVDGVEVHNAKTKPREEQYNSTYRVVSVLTVLHQDWLNGKEYKCKVSNKALPKPEEKTISKAKGQPREPQVYTLPPSRCELTKNQVSLSCAVKGFYPSDIAVEWESNGQPENNYKTTPPVLDSDGSFFLVSKLTVDKSRWQQGNVFSCSVMHEALHNHYTQKSLSLSP chain 3: DIVMTQSPLSLPVTPGEPASISCQASESLVHSNRNTYLHWYLQKPGQSPQLLIYKVSNRFSGVPDRFSGSGSGTDFTLKISRVEAEDVGVYYCSQNTHVPPTFGQGTKVEIERTVAAPSVFIFPPSDEQLKSGTASVVCLLNNFYPREAKVQWKVDNALQSGNSQESVTEQDSKDSTYSLSSTLTLSKADYEKHKVYACEVTHQGLSSPVTKSFNRGEC
–	–	–	–	–	–	0.67	33	240	21	3.1	0.3	H240-Kn180/H240-Hl068/L73-k0 (antibody) chain 1: QDQLVQSGAEVKKPGASVKVSCKASGFNIKDTYIQWVRQAPGQGLEWMGRIDPLRKQTKYREKFEGRVTITADTSTNTAYMELSSLRSEDTAVYYCVRSGREFDYWGQGTLVTVSSASTKGPSVFPLAPSSKSTSGGTAALGCLVKDYFPEPVTVSWNSGALTSGVHTFPAVLQSSGLYSLSSVVTVPSSSLGTQTYICNVNHKPSNTKVDKKVEPKSCDKTHTCPPCPAPEYYWGPMVFLFPPKPKDTLMISRTPEVTCVVVDVSDEDPEVKFNWYVDGVEVHNAKTKPRERQYNATYRVVSVLTVLHQDWLNGKEYKCKVSNKDLPAPIEKTISKAKGQPREPQVCTLPPSRDELTKNQVSLWCLVKGFYPSDIAVEWESNGQPENNYKTTPPVLDSDGSFFLYSKLTVDKSRWQQGNVFSCSVMHEALHNHYTQKSLSLSP chain 2: QDQLVQSGAEVKKPGASVKVSCKASGFNIKDTYIQWVRQAPGQGLEWMGRIDPLRKQTKYREKFEGRVTITADTSTNTAYMELSSLRSEDTAVYYCVRSGREFDYWGQGTLVTVSSASTKGPSVFPLAPSSKSTSGGTAALGCLVKDYFPEPVTVSWNSGALTSGVHTFPAVLQSSGLYSLSSVVTVPSSSLGTQTYICNVNHKPSNTKVDKKVEPKSCDKTHTCPPCPAPELLGGPSVFLFPPKPKDTLMISRTPEVTCVVVDVSHEEPEVKFNWYVDGVEVHNAKTKPREEQYNSTYRVVSVLTVLHQDWLNGKEYKCKVSNDALPKPIEETISKAKGQPREPQVYTLPPSRCELTKNQVSLSCAVKGFYPSDIAVEWESNGQPENNYKTTPPVLDSDGSFFLVSKLTVDKSRWQQGNVFSCSVMHEALHNHYTQKSLSLSP chain 3: DIQMTQSPSSLSASVGDRVTITCRASQDIHKYIAWYQQKPGQAPRLLIQYTSTLQPGVPSRFSGSGSGTDYTFTISSLQPEDIATYYCLQYEQLRTFGGGTKVEIKRTVAAPSVFIFPPSDEQLKSGTASVVCLLNNFYPREAKVQWKVDNALQSGNSQESVTEQDSKDSTYSLSSTLTLSKADYEKHKVYACEVTHQGLSSPVTKSFNRGEC
–	–	–	–	–	–	14	53	480	22	33	1.4	H240-Kn120/H240-Hl086/L73-k0 (antibody) chain 1: QDQLVQSGAEVKKPGASVKVSCKASGFNIKDTYIQWVRQAPGQGLEWMGRIDPLRKQTKYREKFEGRVTITADTSTNTAYMELSSLRSEDTAVYYCVRSGREFDYWGQGTLVTVSSASTKGPSVFPLAPSSKSTSGGTAALGCLVKDYFPEPVTVSWNSGALTSGVHTFPAVLQSSGLYSLSSVVTVPSSSLGTQTYICNVNHKPSNTKVDKKVEPKSCDKTHTCPPCPAPEYYWGPMVFLFPPKPKDTLMISRTPEVTCVVVDVSDEDPEVKFNWYVDGVEVHNAKTKPREEQYNATYRVVSVLTVLHQDWLNGKEYKCKVSNKDLPAPIEKTISKAKGQPREPQVCTLPPSRDELTKNQVSLWCLVKGFYPSDIAVEWESNGQPENNYKTTPPVLDSDGSFFLYSKLTVDKSRWQQGNVFSCSVMHEALHNHYTQKSLSLSP chain 2: QDQLVQSGAEVKKPGASVKVSCKASGFNIKDTYIQWVRQAPGQGLEWMGRIDPLRKQTKYREKFEGRVTITADTSTNTAYMELSSLRSEDTAVYYCVRSGREFDYWGQGTLVTVSSASTKGPSVFPLAPSSKSTSGGTAALGCLVKDYFPEPVTVSWNSGALTSGVHTFPAVLQSSGLYSLSSVVTVPSSSLGTQTYICNVNHKPSNTKVDKKVEPKSCDKTHTCPPCPAPELLIGPSVFLFPPKPKDTLMISRTPEVTCVVVDVSHEEPEVKFNWYVDGVEVHNAKTKPREEQYNSTYRVVSVLTVLHQDWLNGKEYKCKVSNDALPKPIEETISKAKGQPREPQVYTLPPSRCELTKNQVSLSCAVKGFYPSDIAVEWESNGQPENNYKTTPPVLDSDGSFFLVSKLTVDKSRWQQGNVFSCSVMHEALHNHYTQKSLSLSP chain 3: DIQMTQSPSSLSASVGDRVTITCRASQDIHKYIAWYQQKPGQAPRLLIQYTSTLQPGVPSRFSGSGSGTDYTFTISSLQPEDIATYYCLQYEQLRTFGGGTKVEIKRTVAAPSVFIFPPSDEQLKSGTASVVCLLNNFYPREAKVQWKVDNALQSGNSQESVTEQDSKDSTYSLSSTLTLSKADYEKHKVYACEVTHQGLSSPVTKSFNRGEC
